Data: patent US20220282255A1

Molecular target: Recombinant Human TGF-β1, manufactured by Peprotech (human) (UniProt P01137)
Assay: cell-based or functional assay

Chain of Recombinant Human TGF-β1, manufactured by Peprotech (human) (P01137 279-390 limits assumed): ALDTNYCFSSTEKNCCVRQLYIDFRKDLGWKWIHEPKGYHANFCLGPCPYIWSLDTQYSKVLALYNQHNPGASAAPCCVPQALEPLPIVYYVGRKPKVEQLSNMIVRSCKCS

Substance: known TGF-β antibody (R&D, MAB1835)
- cell (luciferase assay inhibitory rate (%)): 100%
